Data published in patent US20230357389A1 (Innovent, published 2023).
Positions count from the first letter of the chain named.

Columns and labels:
[1] = target: T1, human CLDN18.2 on the cell surface (human, UniProt P56856-2 1-261); experiment: cell-based or functional assay
[2] = target: T1, human CLDN18.2 on the cell surface; experiment: flow cytometry (FACS) titration on DAN-G-hCLDN18.2 pancreatic cancer cells
[3] = target: T1, human CLDN18.2 on the cell surface; experiment: flow cytometry (FACS) titration on CHO-hCLDN18.2 cells, PE anti-human Fc secondary antibody; the EC50 table prints no unit, nM is taken from the axis Log[Conc.(nM)]
Description: (§1) Specifically, the cells to be tested (CHO-hCLDN18.2 and CHO-hCLDN18.1) obtained in Example 1 were counted and diluted to 1×10⁶ cells/ml, added to the U-shaped bottom 96-well plate at 100 μl/well, and then centrifuged at 500 g for 5 min before the cell culture medium was removed. […] The initial concentration of the antibody was 900 nM, and it was diluted three times serially, a total of 10 concentration points before leaving it on ice for 30 min, and removing the supernatant at 500 g for 5 min, and washing the cells with PBS once before adding goat anti-human Fc PE-labeled secondary antibody (Southern Biotech, J2815-5H87B) at 100 μl/well, and incubating in dark on ice for 30 min, removing the supernatant at 500 g for 5 min, and washing the cells with PBS once. 50 μl 1×PBS was used to resuspend cells and FACS was used for detection. GraphPad Prism software was used to analyze the experimental data and get FIG. 1 and FIG. 2.

[4] = target: T1, human CLDN18.2 on the cell surface; experiment: flow cytometry (FACS) titration on NUGC-4 gastric cancer cells
[5] = target: T2, human CD3 complex on T cells (human, UniProt P07766 23-207; P04234 22-171; P09693 23-182; P20963 22-164); experiment: flow cytometry on Jurkat cells (human CD3 complex), PE anti-human Fc secondary antibody; the EC50 table prints no unit, nM is taken from the axis Concentration of antibody (nM)
T2 construct: whole, on cells; also called CD3 at the cellular level; Jurkat cells
T2 sequence (P07766 23-207, chain 1 of 4): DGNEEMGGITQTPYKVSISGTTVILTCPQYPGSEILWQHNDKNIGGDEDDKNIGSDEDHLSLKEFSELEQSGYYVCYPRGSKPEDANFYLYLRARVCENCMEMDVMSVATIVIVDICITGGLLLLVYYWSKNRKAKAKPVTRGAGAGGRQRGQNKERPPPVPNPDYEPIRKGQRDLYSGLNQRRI
T2 sequence (P04234 22-171, chain 2 of 4): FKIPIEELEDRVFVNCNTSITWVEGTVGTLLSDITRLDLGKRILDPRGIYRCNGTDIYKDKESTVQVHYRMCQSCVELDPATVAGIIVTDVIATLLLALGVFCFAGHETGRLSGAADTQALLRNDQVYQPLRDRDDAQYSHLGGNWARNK
T2 sequence (P09693 23-182, chain 3 of 4): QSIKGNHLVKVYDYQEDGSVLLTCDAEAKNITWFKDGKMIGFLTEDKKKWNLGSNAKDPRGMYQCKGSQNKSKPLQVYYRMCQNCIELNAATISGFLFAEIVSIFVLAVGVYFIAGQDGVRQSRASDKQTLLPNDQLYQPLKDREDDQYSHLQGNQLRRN
T2 sequence (P20963 22-164, chain 4 of 4): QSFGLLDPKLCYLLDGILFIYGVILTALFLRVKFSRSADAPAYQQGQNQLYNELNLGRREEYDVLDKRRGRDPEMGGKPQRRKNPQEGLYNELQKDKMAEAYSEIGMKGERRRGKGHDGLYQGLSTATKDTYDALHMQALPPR
Source text: Jurkat cells were immortalized human T lymphocytes, which expressed human CD3 complex. The cell line was used to detect the binding of the antibody of invention and the cell.

[6] = target: T3, Human Claudin 18.2 (GenScrip, P50251802) (human, UniProt P56856-2 1-261, limits assumed); experiment: SPR (Biacore T200), CLDN18.2 amine-coupled to chip, antibody as analyte, 1:1 model
T3 construct: Bought protein; also called human CLDN18.2
Description: After coupling, 1 M ethanolamine was injected to seal the remaining activation sites. The binding and dissociation between the chip surface antigen and the antibody in the mobile phase were detected by Biocore (GE Healthcare, T200) according to the manufacturer's instructions to obtain the affinity and kinetic constants. The serially diluted antibody (0-100 nM) flowed through the chip surface in order from low concentration to high concentration, with binding time of 180 s and dissociation time of 600 s. Finally, 10 mM Glycine pH 1.5 (GE Healthcare, BR-1003-54) was used to regenerate the chip. The resulting data were analyzed using the Biocore T200 analysis software and the dynamic analysis was conducted using the 1:1 combination model.

[7] = target: T4, human CLDN18.1 on the cell surface (human, UniProt P56856 1-261); experiment: flow cytometry (FACS) titration on CHO-hCLDN18.1 cells, PE anti-human Fc secondary antibody
T4 construct: whole, on cells; also called CHO-hCLDN18.1
Description: as §1

B1: bispecific antibody 030 (CLDN18.2 x CD3) (bispecific antibody, human IgG1, kappa, lambda, L234A L235A)
heavy 1: not shown
light 1: not shown
heavy 2: not shown
light 2: QAVVTQEPSLTVSPGGTVTLTCRSSTGAVTTSNYANWVQQKPGQAPRGLIGGTNKRAPGVPARFSGSLLGDKAALTLLGAQPEDEAEYYCALWYSNLWVFGQGTKLTVLGQPKAAPSVTLFPPSSEELQANKATLVCLISDFYPGAVTVAWKADSSPVKAGVETTTPSKQSNNKYAASSYLSLTPEQWKSHRSYSCQVTHEGSTVEKTVAPTECS
Q: What does the source list for B1?
A: EC50 of PBMC-mediated killing of gastric cancer cell NUGC-4 [1]: < 0.001 nM; EC50 of PBMC-mediated killing of pancreatic cancer cell DAN-G-hCLDN18.2 [1]: < 0.1 pM

B2: bispecific antibody 032 (CLDN18.2 x CD3) (bispecific antibody, human IgG1, kappa, lambda, L234A L235A)
heavy 1: not shown
light 1: not shown
heavy 2: not shown
light 2: B1 light 2
Q: For B2, which “EC50 of PBMC-mediated killing of gastric cancer cell NUGC-4” value [1] is on record?
A: The value was less than 0.001 nM.

Q: And the “EC50 of PBMC-mediated killing of pancreatic cancer cell DAN-G-hCLDN18.2” value [1]?
A: The value was less than 0.1 pM.

B3: bispecific antibody 033 (CLDN18.2 x CD3) (bispecific antibody, human IgG1, kappa, lambda, L234A L235A)
heavy 1: not shown
light 1: not shown
heavy 2: not shown
light 2: B1 light 2
Q: Which “killing activity on NUGC-4 and DAN-G-hCLDN18.2 relative to 030 and 032” value [1] does the source give for B3 here?
A: The value was ~1000 times lower than 030 and 032.

B4: control antibody zolbetuximab (antibody, human IgG1, kappa, V domains shown)
VH: QVQLQQPGAELVRPGASVKLSCKASGYTFTSYWINWVKQRPGQGLEWIGNIYPSDSYTNYNQKFKDKATLTVDKSSSTAYMQLSSPTSEDSAVYYCTRSWRGNSFDYWGQGTTLTVSS
VL: DIVMTQSPSSLTVTAGEKVTMSCKSSQSLLNSGNQKNYLTWYQQKPGQPPKLLIYWASTRESGVPDRFTGSGSGTDFTLTISSVQAEDLAVYYCQNDYSYPFTFGSGTKLEIKR
notes: also called Zmab; positive control antibody Zmab
Q: B4 was tested. Which “EC50 (read off the curve)” value [2] did it give?
A: The value was roughly 2 nM.

Q: And the EC50 [3]?
A: Its EC50 is 3.31 nM.

Q: What about the “EC50 (read off the curve)” value [4] of the same binder?
A: Its value is roughly 3 nM.

B5: anti-CD3 monoclonal antibody HzSP34.87 (antibody, human IgG1, lambda, L234A L235A, V domains shown)
VH: EVQLVESGGGLVQPGGSLKLSCAASGFTFNTYAMNWVRQASGKGLEWVGRIRSKYNNYATYYADSVKDRFTISRDDSKSTLYLQMNSLKTEDTAVYYCARHYNFGQSYVSWFAYWGQGTTVTVSS
VL: QAVVTQEPSLTVSPGGTVTLTCRSSTGAVTTSNYANWVQQKPGQAPRGLIGGTNKRAPGVPARFSGSLLGDKAALTLLGAQPEDEAEYYCALWYSNLWVFGQGTKLTVLG
Q: Which EC50 [5] does the source give for B5 here?
A: Its EC50 is 3.42 nM.

B6: anti-CD3 monoclonal antibody HzSP34.97 (antibody, human IgG1, lambda, L234A L235A, V domains shown)
VH: B5 VH with Y55A, N56G, N57G, Y102G
VL: B5 VL
Q: With B6 as the binder, how does the EC50 [5] read?
A: Its EC50 is 3 nM.

B7: anti-CLDN18.2 monoclonal antibody HB37A6 (antibody, human IgG1, kappa, V domains shown)
VH: EVQLLDSGGGLVQPGGSLRLSCAASGFTFSSYVMSWVRQAPGKGLNWVSTISHSGGSTYYADSVKGRFTISRDNSKNTLYLQMNSLRAEDTAVYYCAIDAPYYDILTGYRYWGQGTLVTVSS
VL: not shown
notes: also called whole human antibody HB37A6
Q: Which results are given for B7?
A: Kd [6]: 0.72 nM; koff [6]: 0.000306 s⁻¹; kon [6]: 425000 M⁻¹ s⁻¹; binding result [7]: no binding; EC50 [3]: 5.51 nM; EC50 (read off the curve) [4]: ~1 nM
